This assay concerns the target T1, chicken FANCD2, wild type, purified recombinant (chicken, UniProt Q68Y81 1-1439).
T1 construct: FANCD2, chicken (Gallus gallus); also called cFANCD2; WT cFANCD2; source: E. coli BL21(DE3) codon(+)RIL, purified
As to the kind of experiment: SEC; Superdex 200 10/300 GL; equimolar mixture of cFANCD2 and cFANCI; 20 mM Tris-HCl (pH 8.0), 10% glycerol, 200 mM NaCl, 5 mM 2-mercaptoethanol; fractions on 7% SDS-PAGE, silver staining. The following applies: both partners purified. (Size exclusion chromatography separates by hydrodynamic size, large species first.)

T1 sequence (Q68Y81 whole entry): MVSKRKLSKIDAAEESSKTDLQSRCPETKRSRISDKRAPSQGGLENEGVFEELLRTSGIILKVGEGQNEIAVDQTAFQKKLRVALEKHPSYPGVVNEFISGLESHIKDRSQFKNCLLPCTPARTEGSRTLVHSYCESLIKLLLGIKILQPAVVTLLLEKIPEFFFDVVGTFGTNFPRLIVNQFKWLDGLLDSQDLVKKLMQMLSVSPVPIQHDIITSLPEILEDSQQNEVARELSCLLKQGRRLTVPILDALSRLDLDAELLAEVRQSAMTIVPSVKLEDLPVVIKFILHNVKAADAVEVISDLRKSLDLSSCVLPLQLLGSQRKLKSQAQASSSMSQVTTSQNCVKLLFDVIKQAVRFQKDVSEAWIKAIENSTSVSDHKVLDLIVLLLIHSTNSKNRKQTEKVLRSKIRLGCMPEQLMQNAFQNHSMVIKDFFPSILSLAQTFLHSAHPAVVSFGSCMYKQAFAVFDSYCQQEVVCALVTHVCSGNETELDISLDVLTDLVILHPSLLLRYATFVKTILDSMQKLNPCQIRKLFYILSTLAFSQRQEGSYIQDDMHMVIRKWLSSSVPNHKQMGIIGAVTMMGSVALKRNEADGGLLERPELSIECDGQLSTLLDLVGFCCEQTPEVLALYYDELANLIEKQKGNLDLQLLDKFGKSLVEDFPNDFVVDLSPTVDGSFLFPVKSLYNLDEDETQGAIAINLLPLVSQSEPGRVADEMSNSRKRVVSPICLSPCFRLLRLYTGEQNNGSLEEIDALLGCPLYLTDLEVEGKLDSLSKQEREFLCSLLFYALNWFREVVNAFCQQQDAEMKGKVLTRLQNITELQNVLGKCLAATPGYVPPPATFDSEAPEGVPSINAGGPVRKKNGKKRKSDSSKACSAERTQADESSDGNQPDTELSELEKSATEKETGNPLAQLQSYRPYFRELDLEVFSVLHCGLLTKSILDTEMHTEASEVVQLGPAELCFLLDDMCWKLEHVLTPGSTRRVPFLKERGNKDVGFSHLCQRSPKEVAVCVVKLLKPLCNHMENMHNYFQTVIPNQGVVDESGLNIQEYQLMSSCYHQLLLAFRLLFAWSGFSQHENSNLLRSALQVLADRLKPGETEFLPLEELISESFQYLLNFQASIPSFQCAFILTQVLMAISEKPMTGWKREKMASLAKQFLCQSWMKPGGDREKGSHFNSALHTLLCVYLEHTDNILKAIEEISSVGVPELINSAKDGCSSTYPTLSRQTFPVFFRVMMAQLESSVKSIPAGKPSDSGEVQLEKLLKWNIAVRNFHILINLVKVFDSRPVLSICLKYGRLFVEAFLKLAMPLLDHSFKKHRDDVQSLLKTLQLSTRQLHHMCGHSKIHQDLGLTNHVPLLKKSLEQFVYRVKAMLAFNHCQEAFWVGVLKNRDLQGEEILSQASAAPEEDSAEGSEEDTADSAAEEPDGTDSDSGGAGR

B1: chicken FANCI, wild type, purified recombinant (natural protein, UniProt B0I564 1-1338, looked up)
chain: MAQRILQLAAEGSPERLQEALQGLTEGELGDMVTRQALRGRETAALLKGIFKGSPCSQQSGVLRRLQVYKHCVSLVESGDLHVGKVSEIIGLLMLEARQLPGHALAELATLFVEVIKRGSLSNGKSLELFSTVLTALSNSKESLAYGKGELNGEEFKKQLINTLCSSKWDPQCVIHLANMFRDIPLSGEELQFVVEKVLRMFSKLDLQEIPPLVYQLLLLSAKGSKKTVLEGIISFFNQLDKRQKEEQRVPQSADLEVATVPLDQLRHVEGTVILHIVSAINLDQDIGEELIKHLKTEQQKDPGKALCPFSVSLLLSTAVKHRLQEQIFDFLKTSITRSCKDLQILQASKFLQDLCPQQYDVTAVILEVVKNSAFGWDHVTQGLVDLGFSLMESYEPKKSFGGKAAETNLGLSKMPAQQACKLGASILLETFKVHEPIRSDILEQVLNRVLTKAASPVSHFIDLLSNIVVSAPLVLQNSSSRVTETFDNLSFLPIDTVQGLLRAVQPLLKVSMSVRDSLILVLQKAIFSRQLDARKAAVAGFLLLLRNFKILGSLTSSQCSQAIGATQVQADVHACYNSAANEAFCLEILGSLRRCLSQQADVRLMLYEGFYDVLRRNSQLASSIMETLLSQIKQYYLPQQDLLPPLKLEGCIMAQGDQIFLQEPLAHLLCCIQHCLAWYKSTVHLCKGAEDEEEEEDVGFEQNFEEMLESVTRRMIKSELEDFELDKSADFSPSSGVGVKNNIYAIQVMGICEVLIEYNFKIGNFSKNKFEDVLGLFTCYNKLSEILKEKAGKNKSTLGNRIARSFLSMGFVSTLLTALFRDNAQSHEESLAVLRSSTEFMRYAVSVALQKVQQLEEMGQTDGPDGQNPEKMFQNLCKITRVLLWRYTSIPTAVEESGKKKGKSISLLCLEGLLRIFNTMQQLYAARIPQFLQALDITDGDAEEADINVTEKAAFQIRQFQRSLVNQLSSAEDDFNSKETQLLITILSTLSKLLDPGSQQFLQFLTWTVKICKENALEDLSCCKGLLTLLFSLHVLYKSPVSLLRELAQDIHACLGDIDQDVEIESRSHFAIVNVKTAAPTVCLLVLGQADKVLEEVDWLIKRLTILGSDTSEDSTQASNQTQALEKGVILQLGTLLTVFHELVQTALPAGSCVDSLLRSLSKTYAILTSLIKHYIQACRSTSNTVPGRLEKLVKLSGSHLTPQCYSFITYVQNIHSESLSFAEEKKKKKKEDETAVVSTVMAKVLRDTKPIPNLIFAIEQYEKFLIHLSKKSKVNLMQYMKLSTSRDFRINASMLDSVLQEQNTEDAENEPDNNQSGTAEQPDENQEPQKKRRRKK
notes: FANCI, chicken (Gallus gallus); also called cFANCI; WT cFANCI; source: E. coli BL21(DE3) codon(+)RIL, purified
Consider B1, for which the binding result is “binds”.

These data come from publication PMC4260917, “Defective FANCI Binding by a Fanconi Anemia-Related FANCD2 Mutant” (PLoS ONE, 2014).
